In the DeepSol protein solubility set:

Test: soluble on expression in E. coli; label from the status in PepcDB or PDB records

| Sequence | soluble on expression in E. coli |
| --- | --- |
| MAHHHHHHMSKKRKSYENDEDVYDNKRNKKNVASSIDSYGRKVWDKEYYQKKVDEKVENDEDELILKLLPDLKKKSKLEPPPPSERKLLEERKENLLLEKNLGKVQILTQKTPKNEQGGYYCKICDCVLKDSQTYLDHINGKNHNRMLGYSMKVKKVTLDDVKKRLSLLKDKKQNKTEDVEKDPYEDAKKNLKDMQEDEERRIQKRKEKKMLKKLEKEKKKNENENENNDEESDNMNMMFKEMGLPTSFV | soluble |
| MKYVLIQATDNGILRRAECGGAVTALFKYLLDKKLVDGVLALKRGEDVYDGIPTFITNSNELVETAGSLHCAPTNFGKLIAKYLADKKIAVPAKPCDAMAIRELAKLNQINLDNVYMIGLNCGGTISPITAMKMIELFYEVNPLDVVKEEIDKGKFIIELKNGEHKAVKIEELEEKGFGRRKNCQRCEIMIPRMADLACGNWGAEKGWTFVEICSERGRKLVEDAEKDGYIKIKQPSEKAIQVREKIESIMIKLAKKFQKKHLEEEYPSLEKWKKYWNRCIKCYGCRDNCPLCFCVECSLEKDYIEEKGKIPPNPLIFQGIRLSHISQSCINCGQCEDACPMDIPLAYIFHRMQLKIRDTLGYIPGVDNSLPPLFNIERLEHHHHHH | soluble |
| MFKKFLSLCIVSTFSVAATSALAQPNQLVGKSSPQQLAPLMKAASGKGIKNQYIVVLKQPTTIMSNDLQAFQQFTQRSVNALANKHALEIKNVFDSALSGFSAELTAEQLQALRADPNVDYIEQNQIITVNPIISASANAAQDNVTWGIDRIDQRDLPLNRSYNYNYDGSGVTAYVIDTGIAFNHPEFGGRAKSGYDFIDNDNDASDCQGHGTHVAGTIGGAQYGVAKNVNLVGVRVLGCDGSGSTEAIARGIDWVAQNASGPSVANLSLGGGISQAMDQAVARLVQRGVTAVIAAGNDNKDACQVSPAREPSGITVGSTTNNDGRSNFSNWGNCVQIFAPGSDVTSASHKGGTTTMSGTSMASPHVAGVAALYLQENKNLSPNQIKTLLSDRSTKGKVSDTQGTPNKLLYSLTDNNTTPNPEPNPQPEPQPQPDSQLTNGKVVTGISGKQGELKKFYIDVPAGRRLSIETNGGTGNLDLYVRLGIEPEPFAWDCASYRNGNNEVCTFPNTREGRHFITLYGTTEFNNVSLVARY | not soluble |
| MGSSHHHHHHSSGLVPRGSTKVKYVDKIHIGNYEIDAWYFSPFPEDYGKQPKLWLCEYCLKYMKYEKSYRFHLGQCQWRQPPGKEIYRKSNISVHEVDGKDHKIYCQNLCLLAKLFLDHKTLYFDVEPFVFYILTEVDRQGAHIVGYFSKEKESPDGNNVACILTLPPYQRRGYGKFLIAFSYELSKLESTVGSPEKPLSDLGKLSYRSYWSWVLLENLRDFRGTLSIKDLSQMTSITQNDIISTLQSLNMVKYWKGQHVICVTPKLVEEHLKSAQYKKPPITVDSVCLKWAPPK | soluble |
| MSTRYPTLTRSGFVLPERMKASYEGAADGRRSATWDAPDTGVNSLIMPALRNLRSRSRAAVRNDPYAANAIDRRVSNLIGTGITPQPRIADKELRRIFQETWEDWVDESDADQLTDFYGQQALIARTVEQSGECFVRLRPRRMDDGLAVPLQLQCLAPEFVPHDKFEVTSTGNIIRAGIEFNGFGKRVAYWCYRSHPSDMTSINAGYNMLVRIPASQMLHIFEPVEPGQLRGVPRLAPVLKRLRSLDNFDDAVLFRQEVANLFAGFIRKPSADGPPMLDPLTGAPIKIGGDGFTPMVALEPGTMQELLPGEEVEFSTPPDGGNNYPDFMRQQLMAAAAGAGLPYELMTGDMRGVNDRTIRVVLNEFRRRLEQLQFSVYVHQLCRPVRAAWMDMAVLSGALQLDDYAARRREYLRTRWVPQGWSYIHPVQDVQSRTMEINAGLASRSEMCLRTGTDAEIVDEENAADAARARGLGLNYSTLSAFDEDPDEKENP | not soluble |
| MEKKFIAIYDLESDKIEIIDDKFRFKCIEDCGKCCIYNEIPLREEDIQKILSLGYEEEYFVDYTKMFYRGPKFLGYGMKKRPFDDACVFLDPETKKCRIYEHRPVACRIYPFVLVKHEKKLEIYVKEDPRCPGINSPDGEGIVEIIKKYFIPIIEELKGEINGNRRSRQEDFISFNRRLETVVAAALEHHHHHH | not soluble |
| DGDQCETSPCQNQGKCKDGLGEYTCTCLEGFEGKNCELFTRKLCSLDNGDCDQFCHEEQNSVVCSCARGYTLADNGKACIPTGPYPCGKQTLERRKRSVAQATSSSGEAPDSITWKPYDAADLDPTENPFDLLDFNQTQPERGDNNLTR | soluble |
| DLVASGATLPEIQKRGYLTVAVKDNLRPLGFRDDKGNLQGLEIDLAKRLANDLLGKPDAVKFQPVANSDRLPVIVENKIDLAIANVTATESRSRIVSFSVPYYYDGAAIVTKDTSINQLEDLYRRKIAVLNNSSTIFYVKYFIPKSELIGVSSYAQAQEKIESNAVDAFAADNSLLSGWVQEYPKYHILPSQLSTEPLSVVMAKGLQYDEFRRSVNEAIARYIATGWLKESTQHWGLGNSQEKTLTTDR | not soluble |
| MSVDLKRGETLPIHVNMTFPSLPCDVLSVDAIDMSGKHEVDLDTNIWKLRLNSHGHIIGTEYISDLVEKGHEHDGKEEHKNETETEALNILGFDQAAETMIKKVKQALADGEGCRVYGVLDVQRVAGNFHISVHGLNIYVAQMIFGGSKNVNVSHMIHDLSFGPKYPGIHNPLDDTNRILHDTSGTFKYYIKIVPTEYRYLSKDVLSTNQYSVTEYFTPMTEFDRTWPAVYFLYDLSPITVTIKEERRSFLHLITRLCAVLGGTFALTGMLDRWMFRFIESFNKKPSTRA | soluble |
| MTMTTMPESLNSPVSGKAVFMEFGPPNQQMSPSPMSHGHYSMHCLHSAGHSQPDGAYSSASSFSRPLGYPYVNSVSSHASSPYISSVQSYPGSASLAQSRLEDPGQDLVPKQAIQVQEADEAGWGGSGG | soluble |
| MEVIKITPRGYCYGVVDAMVIARNAALDPSLPRPIYILGMIVHNKHVTDAFAEEGIITLDGENRLEILEKIDHGTVIFTAHGVSPEVKKRALEKGLVTIDATCPDVTKTHRLIEQKLADGYDIIYIGKKGHPEPEGAVGINPERIHLVETIDDVERLSIHNERIMVTNQTTMSQWDVADIMAKVKEKYPHVEMHKEICLATQLRQEAVAEQAKEADVTIVVGDPRSNNSNRLAQVSEEIAGTKAYRVADVTEIDINWIKDAKKVAVTAGASTPTPITKEVIDFLEQFDPNDPSTWKRERKVPLQKILPKVKTKKEE | not soluble |
| MGSDKIHHHHHHMMFKWPWKADDESGNAEMPWEQALAIPVLAHLSSTEQHKLTQMAARFLQQKRLVALQGLELTPLHQARIAMLFCLPVLELGIEWLDGFHEVLIYPAPFIVDDEWEDDIGLVHNQRVVQSGQSWQQGPVVLNWLDIQDSFDASGFNLVVHEVAHKLDTRNGDRASGVPLIPLREVAGWEHDLHAAMNNIQDEIDLVGESAASIDAYAATDPAECFAVLSEYFFSAPELFAPRFPALWQRFCHFYRQDPLARRRENGLQDEGDRRIVH | not soluble |
| MSLASNVLLQASRLGEMVIKRGGATGLMVHRDTKENNLNVKFKFTSENQERIKAIMDIYPEGHKAGALIPLLDLAQRQHGWLPISAMHEVAKILEVPRMRAYEVATFYTMFNRQPVGKYFLQVCATTPCMLRGAETITETIEKKLGIHAGETTKDGLFTLAEVECLGACVNAPMIQINDDYFEDLTPKDVNEILDDLKAGRKPAAGPRSGRLAAEPFGELTSLKETPPGPGFGLQAALK | not soluble |
| MSDPAGGKALRRDAAENRQRLLDAAATVFSARGLDVGVDEIARVAGVGIGTLYRRFPTKDALISELVRQVLEDFLTLAHEALSAPEGEGLEQVLYGSGAILASNRGCLSRMWNDDQTTVLRNEYRRILFELLAGAKQHGRIREDATEADLDLIFWSLRGVVATTRGVTDTGWRRILAVMIAGLRPGAERLDAAPLSAQDVAQIMENLWPR | not soluble |
| GPGSMRYRLRLDAFAPAGSLPCCRILTQVRNLNMNRSVQTRWESDNQVASQKRTDYDFDKEQWSKQMRFASMDCVMDPDITPIKYTSVTGLKKVLRRFMTMRKLIDRRPDFKTDDLKKLFIQLKTISHSRSLEDLKVLQRLTTHGEASRISKEIKTRMNDEFAKKSWKSLKMQEVSNTYQIELDSFQLVNCYMGQMSKEDWLQITYKCEFRERKGDNEEWQSVCEYPVFEVRLGDGVQSPNTHHFIIVGIMRKDGTRYGKDAQDAASLRKQFDRSRKWF | not soluble |
